For assay [1], the target named is MART-1/Melan-A (anchor-modified decamer, modified at position 2) peptide on HLA-A*02:01 (human). The assay is described as follows: SPR. In general terms: In SPR one partner is held on a chip, and binding of the other changes the refractive index at the surface.
Assay [2] addresses MART-1/Melan-A peptide on HLA-A*02:01 (human). The assay is described as follows: SPR.

What is called Kd is a measure of binding affinity in units of concentration. The low end stands for tighter binding, the high end for weaker binding. DMF5: the Kd in assay [1] worked out at 6 µM; in assay [2], 40 µM.
In assay [1], DMF4 returned a dissociation constant (Kd) of 29 µM.
